According to PMC9896810, “Crk proteins activate the Rap1 guanine nucleotide exchange factor C3G by segregated adaptor-dependent and -independent mechanisms” (Cell Communication and Signaling : CCS, 2023):

T1: Src-phosphorylated C3G (pC3G), wild type (human, UniProt Q13905-1 4-1077, phosphotyrosines (phosphorylated in vitro by Src; sites not stated))
T1 sequence (looked up): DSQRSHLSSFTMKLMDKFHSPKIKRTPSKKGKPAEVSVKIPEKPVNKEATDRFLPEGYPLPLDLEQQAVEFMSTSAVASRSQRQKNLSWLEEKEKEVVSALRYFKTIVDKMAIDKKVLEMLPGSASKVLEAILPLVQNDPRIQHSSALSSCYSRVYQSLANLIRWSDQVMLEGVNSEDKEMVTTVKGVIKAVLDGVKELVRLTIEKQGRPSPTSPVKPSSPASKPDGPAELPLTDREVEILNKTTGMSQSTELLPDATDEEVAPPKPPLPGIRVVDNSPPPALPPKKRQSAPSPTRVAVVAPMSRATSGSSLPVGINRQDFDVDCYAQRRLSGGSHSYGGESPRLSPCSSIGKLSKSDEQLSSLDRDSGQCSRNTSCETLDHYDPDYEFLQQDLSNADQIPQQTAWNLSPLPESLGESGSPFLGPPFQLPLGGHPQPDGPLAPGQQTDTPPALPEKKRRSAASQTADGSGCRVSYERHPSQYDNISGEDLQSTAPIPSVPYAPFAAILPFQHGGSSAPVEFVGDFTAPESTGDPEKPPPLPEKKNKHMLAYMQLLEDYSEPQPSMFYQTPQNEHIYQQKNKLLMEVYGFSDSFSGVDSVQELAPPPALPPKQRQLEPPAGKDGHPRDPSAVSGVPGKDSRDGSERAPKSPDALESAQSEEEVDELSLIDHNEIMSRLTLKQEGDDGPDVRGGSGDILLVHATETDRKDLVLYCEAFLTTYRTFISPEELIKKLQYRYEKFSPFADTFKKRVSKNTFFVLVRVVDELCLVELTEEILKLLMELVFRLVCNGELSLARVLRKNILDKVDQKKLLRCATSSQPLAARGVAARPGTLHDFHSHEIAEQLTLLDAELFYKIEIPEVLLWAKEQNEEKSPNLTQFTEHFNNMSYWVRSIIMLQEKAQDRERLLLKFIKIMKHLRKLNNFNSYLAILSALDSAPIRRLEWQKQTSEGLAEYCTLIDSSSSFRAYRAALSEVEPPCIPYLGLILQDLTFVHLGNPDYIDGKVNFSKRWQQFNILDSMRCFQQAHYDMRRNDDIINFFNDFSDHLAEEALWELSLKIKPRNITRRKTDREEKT

T2: C3G full-length wild type (human, isoform a, residues 4-1077) (human, UniProt Q13905-1 4-1077)
T2 sequence (looked up): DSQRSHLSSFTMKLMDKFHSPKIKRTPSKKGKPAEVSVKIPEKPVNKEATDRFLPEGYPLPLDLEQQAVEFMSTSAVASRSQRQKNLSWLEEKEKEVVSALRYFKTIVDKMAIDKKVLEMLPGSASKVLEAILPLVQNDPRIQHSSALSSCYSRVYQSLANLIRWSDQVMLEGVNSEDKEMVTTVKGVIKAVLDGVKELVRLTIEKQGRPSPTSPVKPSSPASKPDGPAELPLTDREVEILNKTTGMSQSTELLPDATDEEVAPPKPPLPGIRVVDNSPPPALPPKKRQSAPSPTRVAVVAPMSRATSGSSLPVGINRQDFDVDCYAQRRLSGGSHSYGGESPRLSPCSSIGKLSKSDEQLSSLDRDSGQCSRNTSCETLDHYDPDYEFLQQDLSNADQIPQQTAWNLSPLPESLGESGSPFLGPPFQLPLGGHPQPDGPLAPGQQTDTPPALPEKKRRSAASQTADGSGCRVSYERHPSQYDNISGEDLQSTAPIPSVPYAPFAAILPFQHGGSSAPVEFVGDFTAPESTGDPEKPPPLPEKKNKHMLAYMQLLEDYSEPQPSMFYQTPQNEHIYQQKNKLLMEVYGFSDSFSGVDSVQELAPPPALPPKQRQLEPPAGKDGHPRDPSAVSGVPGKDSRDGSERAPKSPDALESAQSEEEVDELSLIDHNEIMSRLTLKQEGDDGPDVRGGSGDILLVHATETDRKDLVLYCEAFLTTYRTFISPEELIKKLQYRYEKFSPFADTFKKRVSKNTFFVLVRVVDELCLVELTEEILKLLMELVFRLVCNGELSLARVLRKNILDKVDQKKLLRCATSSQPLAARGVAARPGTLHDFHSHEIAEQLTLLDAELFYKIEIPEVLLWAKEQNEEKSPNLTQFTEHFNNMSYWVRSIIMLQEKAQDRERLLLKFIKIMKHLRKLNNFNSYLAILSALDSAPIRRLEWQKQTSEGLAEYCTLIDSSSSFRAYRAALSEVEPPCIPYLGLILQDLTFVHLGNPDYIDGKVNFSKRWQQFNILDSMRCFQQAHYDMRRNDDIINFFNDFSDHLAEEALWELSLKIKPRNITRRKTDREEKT

T3: Src-phosphorylated C3G-AAPA (pC3G-AAPA) (human, UniProt Q13905-1 4-1077, phosphotyrosines (phosphorylated in vitro by Src; sites not stated))
T3 chain: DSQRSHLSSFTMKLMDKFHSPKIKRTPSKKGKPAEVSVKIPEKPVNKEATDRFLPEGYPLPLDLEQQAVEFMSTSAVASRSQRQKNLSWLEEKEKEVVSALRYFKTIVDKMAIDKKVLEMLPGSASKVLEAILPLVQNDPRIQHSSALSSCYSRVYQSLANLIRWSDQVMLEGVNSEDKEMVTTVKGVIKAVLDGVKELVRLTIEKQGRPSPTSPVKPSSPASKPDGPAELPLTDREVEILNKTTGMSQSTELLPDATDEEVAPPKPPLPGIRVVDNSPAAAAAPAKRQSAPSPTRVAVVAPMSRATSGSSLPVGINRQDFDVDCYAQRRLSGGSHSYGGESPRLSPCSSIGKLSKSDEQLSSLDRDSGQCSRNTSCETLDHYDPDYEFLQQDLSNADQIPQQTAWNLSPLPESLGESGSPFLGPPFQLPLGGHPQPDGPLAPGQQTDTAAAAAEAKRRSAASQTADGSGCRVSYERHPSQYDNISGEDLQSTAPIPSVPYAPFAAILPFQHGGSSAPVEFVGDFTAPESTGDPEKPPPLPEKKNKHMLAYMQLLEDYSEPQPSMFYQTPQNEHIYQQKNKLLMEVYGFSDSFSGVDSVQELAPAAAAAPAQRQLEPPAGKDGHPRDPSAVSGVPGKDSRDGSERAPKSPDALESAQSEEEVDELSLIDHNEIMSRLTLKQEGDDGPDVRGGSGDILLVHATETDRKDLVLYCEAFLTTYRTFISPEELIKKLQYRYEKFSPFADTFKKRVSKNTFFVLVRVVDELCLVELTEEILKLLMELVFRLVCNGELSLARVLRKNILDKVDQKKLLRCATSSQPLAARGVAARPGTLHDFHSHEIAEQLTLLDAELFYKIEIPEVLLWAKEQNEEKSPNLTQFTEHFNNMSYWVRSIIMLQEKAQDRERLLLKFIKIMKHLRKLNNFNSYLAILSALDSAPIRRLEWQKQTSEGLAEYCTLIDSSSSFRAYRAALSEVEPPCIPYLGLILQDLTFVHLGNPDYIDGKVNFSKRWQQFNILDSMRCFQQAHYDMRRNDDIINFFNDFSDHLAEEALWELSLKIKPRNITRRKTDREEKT


Columns and labels:
[1] = molecular target: T1, Src-phosphorylated C3G (pC3G), wild type; assay: cell-based or functional assay
[2] = molecular target: T2, C3G full-length wild type (human, …); assay: cell-based or functional assay
[3] = molecular target: T1, Src-phosphorylated C3G (pC3G), wild type; assay: cell-based or functional assay; remark: listed apart in the source
[4] = molecular target: T2, C3G full-length wild type (human, …); assay: ITC; same three titrations of C3G with CrkL, global fit in SEDPHAT, three symmetric binding sites, microscopic kd; conditions: both partners purified
[5] = molecular target: T1, Src-phosphorylated C3G (pC3G), wild type; assay: ITC; full-length C3G or pC3G in the cell titrated with CrkL, CrkL fragments, CrkL-W160S or CrkII; 25 °C; 300 mM NaCl, pH 7.5; parameters in Table S11; conditions: both partners purified
[6] = molecular target: T2, C3G full-length wild type (human, …); assay: ITC; C3G in the cell titrated with CrkL; 25 °C; 300 mM NaCl, pH 7.5 (Tris-HCl or Na-phosphate); three titrations fitted one by one, independent-site model (MicroCal Origin); conditions: both partners purified
[7] = molecular target: T2, C3G full-length wild type (human, …); assay: AUC; sedimentation velocity of C3G with increasing CrkL; 20 mM Tris-HCl, 300 mM NaCl, pH 7.5, 20 °C, 48,000 rpm; isotherms fitted with three symmetric sites (Gilbert-Jenkins), microscopic kd; conditions: both partners purified
[8] = molecular target: T1, Src-phosphorylated C3G (pC3G), wild type; assay: pull-down; 30 µg GST-CrkL (full-length or SH3N) with 30 µg C3G on glutathione-agarose; 20 mM Tris-HCl, 150 mM NaCl, pH 7.5, 0.01% BSA; 30 min, 4 °C; washes with 0.1% Triton X-100; coomassie or western blot; conditions: both partners purified
C3G-AAPA-Y554H = C3G-AAPA-Y554H (human, UniProt Q13905-1 4-1077, Y554H); assay: ITC; single-PRM mutants of C3G in the cell titrated with full-length CrkL or CrkL-SH3N; 25 °C; 1:1 model in SEDPHAT; N is the competent fraction of C3G; conditions: both partners purified
[9] = molecular target: T3, Src-phosphorylated C3G-AAPA (pC3G-AAPA); assay: as above; conditions: both partners purified

GEF activity of pC3G (0.2 µM) on Rap1b:mant-dGDP with 5 µM CrkL, fold over pC3G alone [1] [fold] | AC50 of the dose-response activation of the GEF activity of C3G (1 µM) on Rap1b:mant-dGDP [2] [µM] | kmax of the dose-response activation of the GEF activity of C3G (1 µM) on Rap1b:mant-dGDP [2] [M⁻¹ s⁻¹] | AC50 of the dose-response activation of the GEF activity of pC3G (0.2 µM) on Rap1b:mant-dGDP [3] [µM] | kmax of the dose-response activation of the GEF activity of pC3G (0.2 µM) on Rap1b:mant-dGDP [3] [s^-1 µM^-1] | Kd [4] [µM] | Kd [5] [µM] | Kd [6] [µM] | stoichiometry N [6] | Kd [7] [µM] | koff [7] [s⁻¹] | binding result [8] | Kd (C3G-AAPA-Y554H) [µM] | stoichiometry N (C3G-AAPA-Y554H) | stoichiometry N [9] | Binder
~9 | 22.4 | 13400 | 1.7 | 0.0342 | 2.3 | 1.3 | 2.8 to 3.6 | ~3 molecules of CrkL per molecule of C3G | 1.4 | > 0.001 |  |  |  |  | CrkL, full-length (human) (natural protein, UniProt P46109 1-303, looked up, Monomer by sedimentation velocity and DLS (theoretical mass 33.7 kDa); Purification 'in a similar manner' as C3G would include TEV cleavage of the tag; also called Crk-like protein; wild type CrkL; source: E. coli BL21 (DE3), purified (His-tagged, purified in a similar manner as C3G)) MSSARFDSSDRSAWYMGPVSRQEAQTRLQGQRHGMFLVRDSSTCPGDYVLSVSENSRVSHYIINSLPNRRFKIGDQEFDHLPALLEFYKIHYLDTTTLIEPAPRYPSPPMGSVSAPNLPTAEDNLEYVRTLYDFPGNDAEDLPFKKGEILVIIEKPEEQWWSARNKDGRVGMIPVPYVEKLVRSSPHGKHGNRNSNSYGIPEPAHAYAQPQTTTPLPAVSGSPGAAITPLPSTQNGPVFAKAIQKRVPCAYDKTALALEVGDIVKVTRMNINGQWEGEVNGRKGLFPFTHVKIFDPQNPDENE
 |  |  |  |  |  |  |  |  |  |  | binds |  |  |  | GST-CrkL R39K (natural protein, human, UniProt P46109 1-303, looked up, human CrkL, full-length, R39K; the results print 'R93K alone', the methods and the sentence before print R39K; also called R93K; source: E. coli BL21 (DE3), purified GST fusion) MSSARFDSSDRSAWYMGPVSRQEAQTRLQGQRHGMFLVKDSSTCPGDYVLSVSENSRVSHYIINSLPNRRFKIGDQEFDHLPALLEFYKIHYLDTTTLIEPAPRYPSPPMGSVSAPNLPTAEDNLEYVRTLYDFPGNDAEDLPFKKGEILVIIEKPEEQWWSARNKDGRVGMIPVPYVEKLVRSSPHGKHGNRNSNSYGIPEPAHAYAQPQTTTPLPAVSGSPGAAITPLPSTQNGPVFAKAIQKRVPCAYDKTALALEVGDIVKVTRMNINGQWEGEVNGRKGLFPFTHVKIFDPQNPDENE
 | 26.8 | 6300 | 12.8 | 0.0139 |  |  |  |  |  |  |  | 0.8 | ~0.5 molecules of SH3N per molecule of C3G-AAPA-Y554H | ~0.1 | CrkL-SH3N (residues 125-182) (domain or fragment, human, UniProt P46109 125-182, looked up, human CrkL, SH3N domain, residues 125-182, in pETEV15b; also called SH3N domain of CrkL; isolated SH3N domain; source: E. coli BL21 (DE3), purified (His-tagged, purified in a similar manner as C3G)) LEYVRTLYDFPGNDAEDLPFKKGEILVIIEKPEEQWWSARNKDGRVGMIPVPYVEKLV
